Measured values from article doi:10.1101/2022.06.13.495963.

Assays:
Assay in all cases: ITC
[1] = target: NRD^510-600 S577A, not phosphorylated (NRD^S577A) (human) (UniProt P10244)
[2] = target: NRD^510-600 T538A, not phosphorylated (NRD^T538A) (human) (UniProt P10244)
[3] = target: B-Myb negative regulatory domain, C-terminal half, amino acids 510-600 (NRD^510-600) (human) (UniProt P10244)
B-Myb negative regulatory domain, C-terminal half, amino acids 510-600 (NRD^510-600) (human), sequence (P10244 510-600): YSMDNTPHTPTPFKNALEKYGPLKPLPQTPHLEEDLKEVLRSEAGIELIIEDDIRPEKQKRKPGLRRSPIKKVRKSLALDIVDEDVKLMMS

NRD^510-600 T538A, not phosphorylated (NRD^T538A) (human), sequence (P10244 510-600 T538A): as the sequence (P10244 510-600) above, with T29A counted along it
NRD^510-600 S577A, not phosphorylated (NRD^S577A) (human), sequence (P10244 510-600 S577A): as the sequence (P10244 510-600) above, with S68A counted along it

Substance: B-Myb DNA binding domain (B-Myb^34-183) (from UniProt P10244-1 34-183) (domain or fragment)
- Kd [1]: 3.2 µM
- Kd [2]: 6.5 µM
- Kd [3]: 4.9 µM
